Consider one molecule from patent US20250002566A1 (FUNDA O OSWALDO CRUZ, published 2025).

In assay [1] the target is DENV1 envelope (E) protein on virus particles (strain PE/97-42735) (Dengue virus 1). In words: cell-based or functional assay.
In assay [2] the target is DENV2 envelope (E) protein on virus particles (strain PE/95-3808) (Dengue virus 2). In words: cell-based or functional assay.
Assay [3] deals with T1, ZIKV Envelope (E) protein, recombinant, in its dimeric form (Native Antigen, UK) (Zika virus).
T1 chain: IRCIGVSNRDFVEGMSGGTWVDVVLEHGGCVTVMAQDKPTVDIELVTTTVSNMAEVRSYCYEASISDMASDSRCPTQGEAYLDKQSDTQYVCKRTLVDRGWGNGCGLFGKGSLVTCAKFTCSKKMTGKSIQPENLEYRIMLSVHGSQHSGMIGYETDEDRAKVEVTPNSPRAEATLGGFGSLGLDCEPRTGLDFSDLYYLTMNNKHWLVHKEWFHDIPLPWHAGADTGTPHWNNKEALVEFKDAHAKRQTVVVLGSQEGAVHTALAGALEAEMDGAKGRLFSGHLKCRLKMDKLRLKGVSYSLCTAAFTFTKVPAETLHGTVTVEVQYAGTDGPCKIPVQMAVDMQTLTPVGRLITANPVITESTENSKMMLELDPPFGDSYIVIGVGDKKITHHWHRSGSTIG
Put plainly: thermal unfolding of the ZVPA3-E(Dimer) complex at the estimated stoichiometry, compared with ZVPA3 alone.

In assay [4] the target is T1, ZIKV Envelope (E) protein, recombinant, …. In words: estimated from MST concentrations at maximum binding (ca. 3x10^13 E dimer molecules with ca. 8x10^12 ZVPA3 molecules).
For assay [5] the target is unchanged. Put plainly: microscale thermophoresis (MST), 150 nM dye-labelled ZIKV E, ZVPA3 titrated in 16 serial 1:2 dilutions, three independent experiments.

B1: ZVPA3 (designed binder)
chain: MGSSHHHHHHSSGLVPRGSHMAKGDPHVLLTTSAGNIELELDSQKAPVSVQNFLDYVNNGFYNNTTFHSVIPGYMIQGGGYTEDMQQKQPNPPIKNEADNGLRNTRGTIAMMRTEDKDSATSQFFINVADNAYADHGQTRYGFAVFGKVVKGMDVADKISQVPTHDVGPYQSVPSKPVVILSATVLPGSGC
notes: Produced as a monomer, ca. 20 kDa; In the MST with virus particles ZVPA3 carried the RED NT-647-NHS dye; The crystal structure of ZVPA3 alone is PDB 7ZFM; also called ZVAP3; designed protein
Regarding B1, in assay [1], the “EC50, plaque reduction neutralization test (PRNT) of DENV1 on Vero cells” value is 870 nM. In addition, in assay [2], the “EC50, plaque reduction neutralization test (PRNT) of DENV2 on Vero cells” value stood at 980 nM. Moreover, the “stability gain of the complex against ZVPA3 alone (thermal unfolding)” value in assay [3] is about 5 ° C. In assay [4], the “stoichiometry ratio ZVPA3:E(Dimer)” value is 3.75 E(Dimer) per ZVPA3. Besides, the Kd in assay [5] came to 86.6 nM.
